In the Human Domainome abundance scans (Beltran et al. 2025) one finds abundance fitness data, which are given here for 167 variants.

± gives the uncertainty stated by the source.

B1: POU domain, class 3, transcription factor 4, residues 280 to 335; numbered along this chain, P49335 (parent)
chain: KKRTSIEVSVKGVLETHFLKCPKPAAQEISSLADSLQLEKEVVRVWFCNRRQKEKR

The series covers variants of B1. The series is described as follows: abundance fitness (aPCA) (normalised: wild type 0, dead -1); higher = more abundant; growth selection in yeast, the domain comes from the species named. The conditions noted are these: Homo sapiens.
Consider Q27R, for which the abundance fitness is -0.054 ± 0.12.
With Q27K, the abundance fitness is -0.157 ± 0.17.
Next, Q27T: -0.335 ± 0.15; Q27W: -0.295 ± 0.15; R3V: -0.15 ± 0.13.
Take R3I: the abundance fitness was 0.104 ± 0.17.
On to R3A, for which the abundance fitness is -0.162 ± 0.14.
Regarding R3P, the abundance fitness worked out at 0.122 ± 0.16.
Take R3T: the abundance fitness was determined as 0.205 ± 0.14.
Under A33T stands -0.704 ± 0.25; under A33L, -0.598 ± 0.13.
Under A33V stands -1.02 ± 0.24; under A33D, -0.96 ± 0.31.
In the case of A33I, the abundance fitness was -0.802 ± 0.31.
In the case of V10E, the abundance fitness is 0.262 ± 0.28.
For the variant V10M, the abundance fitness is 0.058 ± 0.38.
With V10H, the abundance fitness is -0.133 ± 0.26.
Next, V10A: 0.393 ± 0.18; E28I: -0.47 ± 0.19; E28M: -0.355 ± 0.2.
On to E28Y, for which the abundance fitness was -0.382 ± 0.21.
For the variant E15Q, the abundance fitness was -0.789 ± 0.31.
E15A: the abundance fitness is -0.539 ± 0.16.
E15G: the abundance fitness was -0.881 ± 0.17.
Take F18K: the abundance fitness is -0.461 ± 0.21.
Next, F18H: -0.251 ± 0.22; F18Y: -0.195 ± 0.18.
In the case of F18R, the abundance fitness is -0.812 ± 0.12.
For Q37S, the abundance fitness is -0.081 ± 0.2.
For the variant Q37N, the abundance fitness is 0.071 ± 0.31.
With Q37H, the abundance fitness is 0.104 ± 0.22.
Take Q37G: the abundance fitness was 0.177 ± 0.21.
On to K23N, for which the abundance fitness amounted to 0.559 ± 0.18.
Consider K23E, for which the abundance fitness is 0.142 ± 0.11.
Regarding K23I, the abundance fitness is -0.369 ± 0.25.
On to R56E, for which the abundance fitness is 0.387 ± 0.2.
Consider R51T, for which the abundance fitness was -0.848 ± 0.33.
In the case of R51Q, the abundance fitness is -0.237 ± 0.18.
Take R51D: the abundance fitness is -0.839 ± 0.34.
With E39K, the abundance fitness is -0.583 ± 0.34.
Next, K20Y: -0.788 ± 0.18; K20T: -0.129 ± 0.16.
With K20Q, the abundance fitness was -0.578 ± 0.25.
For V43R, the abundance fitness was -0.738 ± 0.15.
Regarding V43D, the abundance fitness was -0.614 ± 0.28.
Consider V43Y, for which the abundance fitness is -0.545 ± 0.23.
Regarding L32S, the abundance fitness is -0.732 ± 0.24.
Under L32G stands -0.784 ± 0.22; under L32R, -0.847 ± 0.2; under L36G, -0.703 ± 0.33.
As for G12R, the abundance fitness was -0.219 ± 0.36.
As to G12S, the abundance fitness was determined as 0.298 ± 0.2.
In the case of G12L, the abundance fitness is 0.004 ± 0.24.
As to T4K, the abundance fitness is 0.011 ± 0.17.
Under N49P stands -0.724 ± 0.21; under N49L, -0.479 ± 0.14.
In the case of N49I, the abundance fitness is -0.613 ± 0.24.
With N49Y, the abundance fitness was -0.752 ± 0.23.
N49D: the abundance fitness was found to be 0 ± 0.23.
Next, C21N: 0.31 ± 0.19; C21Q: 0.265 ± 0.2.
Take C21V: the abundance fitness was -0.781 ± 0.16.
With C21L, the abundance fitness is -0.419 ± 0.12.
As to C21I, the abundance fitness was -0.58 ± 0.21.
On to C21M, for which the abundance fitness was -0.723 ± 0.21.
As to C21E, the abundance fitness was -0.546 ± 0.28.
Next, E41R: -0.637 ± 0.14; E41T: -0.466 ± 0.21.
Next, E41A: -0.776 ± 0.19; E41P: -0.831 ± 0.25.
With E41Q, the abundance fitness was -0.792 ± 0.5.
E54A: the abundance fitness is -0.788 ± 0.2.
Turning to E54G, the abundance fitness was -0.808 ± 0.16.
For E7S, the abundance fitness is 0.528 ± 0.083.
Under E7I stands -0.357 ± 0.11; under E7W, -0.014 ± 0.26.
H17T: the abundance fitness is -0.464 ± 0.23.
H17L: the abundance fitness is -0.401 ± 0.12.
With H17N, the abundance fitness is -0.458 ± 0.37.
For H17D, the abundance fitness is -1 ± 0.34.
Take L38Q: the abundance fitness is -0.89 ± 0.26.
Turning to L38Y, the abundance fitness was -0.483 ± 0.33.
With L38K, the abundance fitness was -0.531 ± 0.29.
As to V42A, the abundance fitness was -0.552 ± 0.22.
Take K11M: the abundance fitness came to 0.17 ± 0.44.
As for S5D, the abundance fitness amounted to 0.405 ± 0.26.
Turning to S5E, the abundance fitness was 0.565 ± 0.17.
As to S5I, the abundance fitness was -0.107 ± 0.2.
Consider S5T, for which the abundance fitness was determined as 0.217 ± 0.15.
In the case of S5N, the abundance fitness was determined as 0.216 ± 0.24.
Next, S5L: -0.045 ± 0.14.
Turning to S5Q, the abundance fitness worked out at 0.268 ± 0.18.
For A25V, the abundance fitness is -0.476 ± 0.14.
On to A25M, for which the abundance fitness is -0.073 ± 0.19.
On to A25G, for which the abundance fitness came to 0.313 ± 0.1.
For the variant A25L, the abundance fitness is -0.262 ± 0.11.
In the case of A25F, the abundance fitness is -0.769 ± 0.21.
For the variant A25R, the abundance fitness was -0.088 ± 0.096.
Consider P24Y, for which the abundance fitness is -1.07 ± 0.43.
In the case of K55T, the abundance fitness was -0.417 ± 0.2.
Turning to K55M, the abundance fitness is -0.264 ± 0.26.
Next, K55Q: -0.016 ± 0.48.
On to I29S, for which the abundance fitness is -0.762 ± 0.29.
Turning to D34A, the abundance fitness is -0.254 ± 0.13.
Next, D34N: -0.384 ± 0.21; D34E: -0.172 ± 0.18.
Consider D34M, for which the abundance fitness is -0.479 ± 0.21.
On to D34I, for which the abundance fitness is -0.717 ± 0.32.
For the variant V13W, the abundance fitness is -0.745 ± 0.27.
Regarding V13Q, the abundance fitness is 0.205 ± 0.35.
For the variant S30F, the abundance fitness is -0.332 ± 0.2.
Under S30L stands -0.536 ± 0.16; under S30V, -0.058 ± 0.11; under F47A, -0.65 ± 0.17.
Under F47R stands -0.677 ± 0.17; under F47S, -0.426 ± 0.15.
For the variant F47W, the abundance fitness was -0.769 ± 0.21.
Consider F47K, for which the abundance fitness is -1.16 ± 0.36.
With L14R, the abundance fitness is -0.792 ± 0.1.
Turning to L14S, the abundance fitness was -0.693 ± 0.11.
Consider S35F, for which the abundance fitness is -0.249 ± 0.14.
S35D: the abundance fitness worked out at 0.031 ± 0.25.
With S35N, the abundance fitness was -0.45 ± 0.24.
Consider S35W, for which the abundance fitness is -0.707 ± 0.2.
Consider S35G, for which the abundance fitness is -0.638 ± 0.15.
On to R44Y, for which the abundance fitness is -0.643 ± 0.34.
On to R44S, for which the abundance fitness was -0.343 ± 0.14.
R44Q: the abundance fitness is -0.074 ± 0.16.
With K53F, the abundance fitness is -0.027 ± 0.29.
Consider K53E, for which the abundance fitness amounted to 0.194 ± 0.18.
Take W46F: the abundance fitness was -1.05 ± 0.34.
As to W46A, the abundance fitness was -0.623 ± 0.15.
As for K40I, the abundance fitness is -0.638 ± 0.27.
Next, K40R: -0.071 ± 0.14; K40G: -0.441 ± 0.16; K40W: -0.539 ± 0.18.
Turning to K40L, the abundance fitness is -0.418 ± 0.14.
Next, K40S: -0.188 ± 0.14.
Consider K40F, for which the abundance fitness came out at 0.195 ± 0.17.
Consider K40N, for which the abundance fitness is -0.248 ± 0.28.
Regarding I6N, the abundance fitness was -0.249 ± 0.095.
Under I6G stands -0.197 ± 0.12.
Under I6V stands -0.215 ± 0.093; under I6H, -0.128 ± 0.097.
In the case of I6Q, the abundance fitness was -0.123 ± 0.15.
On to V45W, for which the abundance fitness was -0.337 ± 0.18.
Next, V45K: 0.165 ± 0.18.
Take V45P: the abundance fitness was -0.38 ± 0.2.
For V8T, the abundance fitness turned out to be 0.307 ± 0.21.
Turning to V8Q, the abundance fitness came out at 0.405 ± 0.2.
S31A: the abundance fitness amounted to 0.006 ± 0.15.
Under S31I stands 0.004 ± 0.18.
Turning to S9N, the abundance fitness stood at 0.52 ± 0.28.
In the case of S9T, the abundance fitness was 0.008 ± 0.24.
Consider S9L, for which the abundance fitness is -0.24 ± 0.35.
Turning to L19S, the abundance fitness is -0.191 ± 0.14.
As to L19P, the abundance fitness is -0.774 ± 0.26.
In the case of L19E, the abundance fitness is -0.391 ± 0.18.
As for L19T, the abundance fitness is -0.019 ± 0.19.
L19C: the abundance fitness was -0.385 ± 0.16.
For L19K, the abundance fitness is -0.461 ± 0.23.
For Q52A, the abundance fitness was 0.203 ± 0.13.
Under K2Y stands -0.159 ± 0.27.
Under K2E stands -0.526 ± 0.28; under K2Q, -0.637 ± 0.25; under R50P, -0.87 ± 0.23.
Under R50W stands -0.999 ± 0.34.
